Data published in patent publication US20130266574A1 (Regeneron, published 2013).
Like-named read-outs stand apart in the source and are kept apart here.

T1: bovine LPL (bovine, UniProt P11151 29-478)
T1 sequence (looked up): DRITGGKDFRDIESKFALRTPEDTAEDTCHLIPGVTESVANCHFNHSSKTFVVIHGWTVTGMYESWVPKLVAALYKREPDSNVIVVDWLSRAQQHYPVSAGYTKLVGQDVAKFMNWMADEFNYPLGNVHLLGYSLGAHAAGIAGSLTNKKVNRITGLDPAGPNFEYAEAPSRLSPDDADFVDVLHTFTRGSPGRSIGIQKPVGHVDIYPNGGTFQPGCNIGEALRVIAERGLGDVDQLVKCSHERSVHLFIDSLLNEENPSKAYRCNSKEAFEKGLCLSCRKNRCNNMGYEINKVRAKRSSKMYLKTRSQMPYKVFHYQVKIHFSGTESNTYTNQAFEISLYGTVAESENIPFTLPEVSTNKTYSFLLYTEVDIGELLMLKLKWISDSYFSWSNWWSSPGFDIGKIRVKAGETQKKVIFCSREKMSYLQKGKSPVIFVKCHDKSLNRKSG

T2: cynomolgus monkey ANGPTL4 N-terminal region (amino acid residues 1-130 of SEQ ID NO:490) with a C-terminal … (cynomolgus monkey (Macaca fascicularis), UniProt Q9BY76 26-130 (human entry))
T2 construct: also called MfANGPTL4(1-130)-His
T2 chain: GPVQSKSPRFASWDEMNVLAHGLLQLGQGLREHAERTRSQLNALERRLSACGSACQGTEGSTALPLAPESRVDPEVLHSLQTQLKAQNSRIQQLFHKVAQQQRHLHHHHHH

B1: full-length hANGPTL4 (amino acid residues 26-406 of SEQ ID NO:476) with a C-terminal hexa-histidine tag (ligand)
chain: GPVQSKSPRFASWDEMNVLAHGLLQLGQGLREHAERTRSQLSALERRLSACGSACQGTEGSTDLPLAPESRVDPEVLHSLQTQLKAQNSRIQQLFHKVAQQQRHLEKQHLRIQHLQSQFGLLDHKHLDHEVAKPARRKRLPEMAQPVDPAHNVSRLHRLPRDCQELFQVGERQSGLFEIQPQGSPPFLVNCKMTSDGGWTVIQRRHDGSVDFNRPWEAYKAGFGDPHGEFWLGLEKVHSITGDRNSRLAVQLRDWDGNAELLQFSVHLGGEDTAYSLQLTAPVAGQLGATTVPPSGLSVPFSTWDQDHDLRRDKNCAKSLSGGWWFGTCSHSNLNGQYFRSIPQQRQKLKKGIFWKTWRGRYYPLQATTMLIQPMAAEAASHHHHHH
B2: amino acid residues 26-148 of human ANGPTL4 fused in-line to mouse IgG2a (hANGPTL4-mFc) (Fc fusion)
chain: GPVQSKSPRFASWDEMNVLAHGLLQLGQGLREHAERTRSQLSALERRLSACGSACQGTEGSTDLPLAPESRVDPEVLHSLQTQLKAQNSRIQQLFHKVAQQQRHLEKQHLRIQHLQSQFGLLDPGSLEFALERNSGEPRGPTIKPCPPCKCPAPNLLGGPSVFIFPPKIKDVLMISLSPIVTCVVVDVSEDDPDVQISWFVNNVEVHTAQTQTHREDYNSTLRVVSALPIQHQDWMSGKEFKCKVNNKDLPAPIERTISKPKGSVRAPQVYVLPPPEEEMTKKQVTLTCMVTDFMPEDIYVEWTNNGKTELNYKNTEPVLDSDGSYFMYSKLRVEKKNWVERNSYSCSVVHEGLHNHHTTKSFSRTPGK

How the values were obtained:
[1] = target: T1, bovine LPL; test: cell-based or functional assay
[2] = target: B1; test: SPR (Biacore), 25° C., pH 7.2, antigen amino-coupled 450 RU
Protocol: (§1) Kinetic analysis was performed to measure kₐ and kd, and KD values and half-life of antigen/antibody complex dissociation were calculated. The results are shown in Table 4 (H1H268P) and Table 5 (H1H284P).

[3] = target: B2; test: SPR (Biacore), 25° C., pH 7.2, antigen captured by anti-mFc
Protocol: as §1

[4] = target: B1; test: SPR (Biacore), 25° C., pH 5.75, antigen amino-coupled 450 RU
Protocol: as §1

[5] = target: B2; test: SPR (Biacore), 25° C., pH 5.75, antigen captured by anti-mFc
Protocol: as §1

[6] = target: T2, cynomolgus monkey ANGPTL4 N-terminal …; test: SPR (Biacore), 25° C., pH 7.2, antigen amino-coupled 1,028 RU
Protocol: as §1

[7] = target: T2, cynomolgus monkey ANGPTL4 N-terminal …; test: SPR (Biacore), 25° C., pH 5.75, antigen amino-coupled 1,028 RU
Protocol: as §1

[8] = target: T2, cynomolgus monkey ANGPTL4 N-terminal …; test: SPR (Biacore), 25° C., pH 5.75, antigen amino-coupled 1,028 RU; Fab, not full mAb; pH 5.75
Protocol: as §1

[9] = target: T1, bovine LPL; test: cell-based or functional assay; remark: listed apart in the source
[10] = target: T1, bovine LPL; test: cell-based or functional assay; remark: listed apart in the source

| Molecule | Kd [2] [nM] | koff [2] [s⁻¹] | kon [2] [M⁻¹ s⁻¹] | t1/2 [2] [min] | Kd [3] [nM] | koff [3] [s⁻¹] | kon [3] [M⁻¹ s⁻¹] | t1/2 [3] [min] | Kd [4] [nM] | koff [4] [s⁻¹] | kon [4] [M⁻¹ s⁻¹] | t1/2 [4] [min] | Kd [5] [nM] | koff [5] [s⁻¹] | kon [5] [M⁻¹ s⁻¹] | t1/2 [5] [min] | Kd [6] [nM] | koff [6] [s⁻¹] | kon [6] [M⁻¹ s⁻¹] | EC50 (nM) of the ANGPTL4 protein in the LPL assay [9] [nM] | further results |
| --- | --- | --- | --- | --- | --- | --- | --- | --- | --- | --- | --- | --- | --- | --- | --- | --- | --- | --- | --- | --- | --- |
| cynomolgus monkey ANGPTL4 N-terminal region (amino acid residues 26-148) with an N-terminal hexa-histidine tag (from UniProt Q9BY76 26-148) (ligand) |  |  |  |  |  |  |  |  |  |  |  |  |  |  |  |  |  |  |  |  | EC50 (nM) of the ANGPTL4 protein in the LPL assay [1]: 3.89 nM |
| H1H284P Fab fragment (Fab, V domains shown, Fab made by papain digestion of H1H284P (IgG1); also called H1H284 Fab) VH: QVQLVESGGGVVQPGRSLRLSCAASGFTFSSYGMHWVRQAPGKGLEWMAVISFDGGNKNNADSVKGRFTISRDNSKNTLYLQMNSLRAEDTAVYYCAKEGDRSGHPYFYYYGLDVWGQGTTVTVS VL: DIQLTQSPSFLSASVGDRVTITCWASQGISSYLAWYQQKPGKAPKLLIYAASTLQSGVPSRFSGSGSETEFTLTISSLQPEDFATYYCQQLHSYPLTFGGGTKVEIK | 0.31 | 0.000344 | 1.11e+06 | 34 | 0.823 | 0.000202 | 245000 | 57 | 1.44 | 0.00173 | 1.21e+06 | 7 | 3.4 | 0.0016 | 472000 | 7 | 10.1 | 0.00313 | 310000 |  | t1/2 [6]: 4 min; koff [7]: 0.00619 s⁻¹; kon [7]: 724000 M⁻¹ s⁻¹; t1/2 [7]: 2 min; Kd [8]: 8.54 nM |
| mANGPTL4-His [R26-S410 of mANGPTL4 (SEQ ID NO: 478) fused with an AS linker to a C-terminal 6-histidine tag] (ligand) RPAQPEPPRFASWDEMNLLAHGLLQLGHGLREHVERTRGQLGALERRMAACGNACQGPKGKDAPFKDSEDRVPEGQTPETLQSLQTQLKAQNSKIQQLFQKVAQQQRYLSKQNLRIQNLQSQIDLLAPTHLDNGVDKTSRGKRLPKMTQLIGLTPNATHLHRPPRDCQELFQEGERHSGLFQIQPLGSPPFLVNCEMTSDGGWTVIQRRLNGSVDFNQSWEAYKDGFGDPQGEFWLGLEKMHSITGNRGSQLAVQLQDWDGNAKLLQFPIHLGGEDTAYSLQLTEPTANELGATNVSPNGLSLPFSTWDQDHDLRGDLNCAKSLSGGWWFGTCSHSNLNGQYFHSIPRQRQERKKGIFWKTWKGRYYPLQATTLLIQPMEATAASASHHHHHH |  |  |  |  |  |  |  |  |  |  |  |  |  |  |  |  |  |  |  | 0.63 |  |
| B1 |  |  |  |  |  |  |  |  |  |  |  |  |  |  |  |  |  |  |  | 6 | EC50 (nM) of the ANGPTL4 protein in the LPL inhibition assay [10]: 4.54 nM |
| H1H268P Fab fragment (Fab, V domains shown, Fab made by papain digestion of H1H268P (IgG1); also called H1H268 Fab) VH: QVQLQESGAGLLKPSETLSLTCTVYGGSFSIHHWTWIRHPPGKGLEWIGEINHRGSTNYNPSLKSRVTISIDTSKNQFSLKLSAVTAADTAVYYCARGLRFLDWLSSYFDYWGQGTLVTVSS VL: DIQMTQSPSSLSASVGDRVTITCRASQGISDYLAWYQQKPGKVPNLLIYAASALQSGVPSRFSGSGSGTDFTLTISSLQPEDVATYYCQNYNTAPLTFGGGTKVEIK | 16.3 | 0.0118 | 726000 | 1 | 2 | 0.000601 | 300000 | 19 | 14.8 | 0.00657 | 444000 | 2 | 17.5 | 0.00304 | 174000 | 4 | 6.42 | 0.00171 | 267000 |  | t1/2 [6]: 7 min; koff [7]: 0.00432 s⁻¹; kon [7]: 312000 M⁻¹ s⁻¹; t1/2 [7]: 3 min; Kd [8]: 13.8 nM |
| B2 |  |  |  |  |  |  |  |  |  |  |  |  |  |  |  |  |  |  |  | 0.5 | EC50 (nM) of the ANGPTL4 protein in the LPL inhibition assay [10]: 0.29 nM |
